Reference: patent US7208293

Key:
BPTI(K15L)-III MA phage = target: T1, BPTI(K15L)-III MA phage (bovine; phage M13); assay: pH elution from HNE beads
T1 construct: Whole M13 phage (ampicillin resistance) displaying the variant on gene III protein; also called BPTI(K15L)-III phage
Protocol: Samples were mixed on a Labquake shaker for 3 hours. The beads were washed with 0.5 ml of TBS/BSA for 5 minutes and recovered by centrifugation. The supernatant was removed and the beads were washed 5 times with 0.5 ml of TBS/0.1% Tween-20. Finally, the beads were resuspended in 0.5 ml of elution buffer (0.1 M HCl containing 1.0 mg/ml BSA adjusted to pH 2.2 with glycine), mixed for 5 minutes and recovered by centrifugation. The supernatant fraction was removed, neutralized with 130 µl of 1 M Tris, pH 8.0, diluted in LB broth, and titered for plaque-forming units on a lawn of cells.

[1] = target: T2, BPTI(K15L,MGNG)-III MA phage (bovine; phage M13); assay: phage eluted from HNE beads
T2 construct: also called BPTI3.CL; BPTI-IIIMK (K15L MGNG)
T2 sequence (chain, as listed by the source): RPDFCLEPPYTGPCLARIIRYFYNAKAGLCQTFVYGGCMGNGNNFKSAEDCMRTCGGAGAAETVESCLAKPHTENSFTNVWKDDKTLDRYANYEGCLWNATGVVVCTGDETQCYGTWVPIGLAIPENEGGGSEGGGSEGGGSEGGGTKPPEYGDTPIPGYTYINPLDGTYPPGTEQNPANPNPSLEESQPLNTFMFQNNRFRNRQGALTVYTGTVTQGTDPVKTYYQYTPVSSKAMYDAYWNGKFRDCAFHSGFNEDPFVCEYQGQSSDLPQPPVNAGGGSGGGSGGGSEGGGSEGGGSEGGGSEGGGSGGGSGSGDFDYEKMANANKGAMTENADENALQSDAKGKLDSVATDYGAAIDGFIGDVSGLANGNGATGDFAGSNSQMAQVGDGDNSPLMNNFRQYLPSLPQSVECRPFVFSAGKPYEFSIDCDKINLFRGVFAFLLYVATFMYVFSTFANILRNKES

B1: human neutrophil elastase (enzyme, UniProt P08246 30-247, looked up)
chain: IVGGRRARPHAWPFMVSLQLRGGHFCGATLIAPNFVMSAAHCVANVNVRAVRVVLGAHNLSRREPTRQVFAVQRIFENGYDPVNLLNDIVILQLNGSATINANVQVAQLPAQGRRLGNGVQCLAMGWGLLGRNRGIASVLQELNVTVVTSLCRRSNVCTLVRGRQAGVCFGDSGSPLVCNGLIHGIASFVRGGCASGLYPDAFAPVAQFVNWIDSIIQ
notes: also called HNE; HNE beads
B1: binds (BPTI(K15L)-III MA phage); binds [1].
